Results as given in the FLAb antibody collection (doi:10.7554/elife.23156).

B1: scFv; the commonest letter at each place (parent)
chain 1: EVKLDETGGGLVQPGRPMKLSCVASGFTFSDYWMNWVRQSPEKGLEWVAQIRNKPYNYETYYSDSVKGRFTISRDDSKSSVYLQMNNLRVEDMGIYYCTGSYYGMDYWGQGTSVTVS
chain 2: DVVMTQTPLSLPVSLGDQASISCRSSQSLVHSNGNTYLRWYLQKPGQSPKVLIYKVSNRFSGVPDRFSGSGSGTDFTLKISRVEAEDLGVYFCSQSTHVPWTFGGGTKLEIK

Columns and labels:
fluorescein = variants of: B1; assay: Kd (Tite-Seq); details: with fluorescein; format: scFv 4-4-20, heavy + light
[1] = variants of: B1; assay: yeast surface expression (ratio to wild type); higher = more expressed; details: format: scFv 4-4-20, heavy + light

| Variant | Kd (fluorescein) | yeast surface expression [1] |
| --- | --- | --- |
| chain 1 Y103R | 0.00444 µM | 0.971 |
| chain 1 M105R D106N | 0.61 µM | 0.717 |
| chain 1 Y102V | 0.0107 µM | 0.936 |
| chain 1 Y102F | 0.00309 µM | 0.776 |
| chain 1 Y102G | 1.91 µM | 0.965 |
| chain 1 S30H Y32C | 9.5 µM | 0.722 |
| chain 1 S101P G104T M105Y | ≥ 10 µM | 0.208 |
| chain 1 F29L D31S | 0.972 µM | 0.743 |
| chain 1 F29L D31L | ≥ 10 µM | 0.633 |
| chain 1 D106W G109D | ≥ 10 µM | 0.186 |
| chain 1 Y102Q M105I | 8.56 µM | 0.843 |
| chain 1 S101R G109Q | ≥ 10 µM | 0.201 |
| chain 1 G104V M105R G109W | ≥ 10 µM | 0.425 |
| chain 1 D31Q W36V | ≥ 10 µM | 0.596 |
| chain 1 S101T Y102M | ≥ 10 µM | 0.778 |
| chain 1 M34F N35E | ≥ 10 µM | 0.811 |
| chain 1 T28A W33R N35I | ≥ 10 µM | 0.622 |
| chain 1 S101T M105S | ≥ 10 µM | 0.699 |
| chain 1 Y102G Y103D | ≥ 10 µM | 1.29 |
| chain 1 F29A M34K V37T | ≥ 10 µM | 0.628 |
| chain 1 Y103M G109W | ≥ 10 µM | 0.221 |
| chain 1 Y102V W108A | 0.021 µM | 0.315 |
| chain 1 T28L W33S | ≥ 10 µM | 0.867 |
| chain 1 Y102L Y107S | 5.96 µM | 1.78 |

| Variant | Kd (fluorescein) | yeast surface expression [1] |
| --- | --- | --- |
| chain 1 Y103L Y107S | 0.55 µM | 0.878 |
| chain 1 Y32F W33Q | ≥ 10 µM | 1.23 |
| chain 1 G100Q Y107C | ≥ 10 µM | 0.176 |
| chain 1 Y103A G104A | ≥ 10 µM | 0.911 |
| chain 1 S101L M105D D106L | ≥ 10 µM | 0.276 |
| chain 1 G104H W108R | ≥ 10 µM | 0.272 |
| chain 1 S30T V37P | 0.0592 µM | – |
| chain 1 S101N Y103N | ≥ 10 µM | 1.21 |
| chain 1 D31M Y32N | ≥ 10 µM | 0.536 |
| chain 1 G109T | ≥ 10 µM | 0.551 |
| chain 1 G109F | ≥ 10 µM | 0.305 |
| chain 1 G109E | ≥ 10 µM | 0.504 |
| chain 1 D106W W108S | ≥ 10 µM | 0.325 |
| chain 1 F29N N35A | ≥ 10 µM | 0.862 |
| chain 1 Y32G W36H | ≥ 10 µM | 0.209 |
| chain 1 G100Q G109M | ≥ 10 µM | 0.223 |
| chain 1 Y32P V37G | ≥ 10 µM | 2.54 |
| chain 1 Y107F W108E | ≥ 10 µM | 0.411 |
| chain 1 T28N W36K | ≥ 10 µM | 0.56 |
| chain 1 D31A M34L V37G | 0.021 µM | 0.0111 |
| chain 1 D31H V37I | 0.00062 µM | 0.799 |
| chain 1 Y32G M34C | ≥ 10 µM | 0.676 |
| chain 1 Y103C W108N | 0.495 µM | 0.227 |
| chain 1 Y102I Y103E G109K | ≥ 10 µM | 0.364 |

| Variant | Kd (fluorescein) | yeast surface expression [1] |
| --- | --- | --- |
| chain 1 M105W | 0.00251 µM | 0.648 |
| chain 1 S101Q Y102D Y107P | ≥ 10 µM | 0.361 |
| chain 1 Y103Q D106M | ≥ 10 µM | 0.805 |
| chain 1 Y103H D106H | ≥ 10 µM | 0.611 |
| chain 1 F29Y V37I | 0.00194 µM | 0.9 |
| chain 1 T28K S30I | 0.00135 µM | 0.889 |
| chain 1 T28K S30H | 0.00142 µM | 0.814 |
| chain 1 F29S D31W | ≥ 10 µM | 0.756 |
| chain 1 Y102L Y107C G109A | ≥ 10 µM | 0.168 |
| chain 1 F29P W33G | ≥ 10 µM | 0.951 |
| chain 1 M105I W108G | ≥ 10 µM | 0.529 |
| chain 1 Y102D D106T | ≥ 10 µM | 1.12 |
| chain 1 D31H M34Y | 0.00279 µM | 0.671 |
| chain 1 Y103I Y107F W108D | ≥ 10 µM | 0.437 |
| chain 1 S101G G104Y | ≥ 10 µM | 0.901 |
| chain 1 D31L V37F | 0.0507 µM | 0.743 |
| chain 1 M34N N35H | 0.0154 µM | 1.84 |
| chain 1 Y103P W108Y | ≥ 10 µM | 0.364 |
| chain 1 T28G F29R Y32K | ≥ 10 µM | 0.507 |
| chain 1 W36M | 0.0259 µM | 0.721 |
| chain 1 W36I | 1.33 µM | 0.756 |
| chain 1 D106G W108E | ≥ 10 µM | 0.575 |
| chain 1 T28W S30G Y32K | 1.55 µM | 0.576 |
| chain 1 G100H W108D | ≥ 10 µM | 0.321 |

| Variant | Kd (fluorescein) | yeast surface expression [1] |
| --- | --- | --- |
| chain 1 V37S | 0.00561 µM | 0.673 |
| chain 1 F29I W33M V37P | ≥ 10 µM | 0.444 |
| chain 1 F29I W33H M34P | ≥ 10 µM | 0.518 |
| chain 1 Y32T | ≥ 10 µM | 1.04 |
| chain 1 Y32V | ≥ 10 µM | 1.02 |
| chain 1 Y32G | 1.63 µM | 0.961 |
| chain 1 Y107I W108S | ≥ 10 µM | 0.786 |
| chain 1 G100C W108G | ≥ 10 µM | 0.401 |
| chain 1 W33N W36R | ≥ 10 µM | 0.764 |
| chain 1 Y102W Y107G | ≥ 10 µM | 0.493 |
| chain 1 S30Q D31H | 0.00158 µM | 0.881 |
| unchanged | 0.00135 µM | 1 |
| chain 1 S30M M34L | 0.00299 µM | 0.94 |
| chain 1 S30M M34P | ≥ 10 µM | 2.67 |
| chain 1 M34I W36F | 0.0107 µM | 0.811 |
| chain 1 S30C W33L | ≥ 10 µM | 0.696 |
| chain 1 M105Q D106Q | ≥ 10 µM | 1.01 |
| chain 1 W108K G109H | ≥ 10 µM | 0.44 |
| chain 1 M105A G109A | ≥ 10 µM | 0.685 |
| chain 1 S30H M34F | 0.0015 µM | 0.945 |
| chain 1 Y107A G109Q | ≥ 10 µM | 0.292 |
| chain 1 S30V D31P | ≥ 10 µM | 0.754 |
| chain 1 S101C G109N | ≥ 10 µM | 0.251 |
| chain 1 Y103C G109A | ≥ 10 µM | 0.397 |

| Variant | Kd (fluorescein) | yeast surface expression [1] |
| --- | --- | --- |
| chain 1 W36D V37M | ≥ 10 µM | 1.25 |
| chain 1 Y32G W33N | ≥ 10 µM | 0.799 |
| chain 1 T28G Y32K | 7.33 µM | 0.795 |
| chain 1 T28V F29W | 0.0154 µM | 0.491 |
| chain 1 Y102E M105A | ≥ 10 µM | 0.815 |
| chain 1 M105R G109T | ≥ 10 µM | 0.344 |
| chain 1 D31M M34K | ≥ 10 µM | 0.564 |
| chain 1 Y102Q G104T | ≥ 10 µM | 0.546 |
| chain 1 F29P W36E | ≥ 10 µM | 0.482 |
| chain 1 D106N G109K | ≥ 10 µM | 0.277 |
| chain 1 S30A M34C | 0.00104 µM | 0.868 |
| chain 1 G100Q W108R | ≥ 10 µM | 0.232 |
| chain 1 M105Y D106H W108L | ≥ 10 µM | 0.362 |
| chain 1 Y103E W108I | 0.004 µM | 1.12 |
| chain 1 T28E S30I W33I | ≥ 10 µM | 0.628 |
| chain 1 N35R W36K | ≥ 10 µM | 2.76 |
| chain 1 Y107D W108N | ≥ 10 µM | 0.477 |
| chain 1 G100F S101T G104Y | ≥ 10 µM | 0.437 |
| chain 1 W33R M34I | ≥ 10 µM | 0.644 |
| chain 1 M105G D106R | ≥ 10 µM | 0.434 |
